These results are taken from the RNAGym collection of RNA variant scans (doi:10.1073/pnas.2313332121).

Sequences and labels used below:
B1: TPR t1 (parent)
chain: GACCAAUCUGCCCUCAGAGCUCGAGAACAUCUUCGGAUGCAGAGGAGGCAGGCUUCGGUGGCGCGAUAGCGCCAACGUCCUCAACCUCCAAUGCAUCCCACCACAUGAUGAUGCCUGAAGAGCCUUGGUUUUUUG

The data set covers variants of B1. As to the kind of experiment: polymerase ribozyme fitness, log enrichment relative to wild type (log ratio); higher = more active; in vitro selection for triplet polymerase activity. Put shortly: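 Streptavidin-bead capture of gel-excised extended constructs, followed by RT-PCR, closed a single triplicate in vitro selection round. That round began by annealing PCR-built, transcribed mutant libraries of each subunit of a heterodimeric triplet polymerase ribozyme with a biotinylated primer, the partner subunit and triplets, then incubating them frozen at −7 °C. After Illumina sequencing of inputs and outputs, genotypes needed ≥10 input reads and ≥1 read per output. Fitness is the base-2 logarithm of genotype enrichment over wild-type enrichment, using inverse-variance-weighted replicate averages.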
As for A29U C56U A74U A100C, the “polymerase ribozyme fitness (log ratio)” value was -3.55.

On to A27C G57U G69U C124G, for which the “polymerase ribozyme fitness (log ratio)” value amounted to 0.217.

As for U30G A43C C101A U106C C115U U132A, the “polymerase ribozyme fitness (log ratio)” value was -7.22.

For A27G U112A, the “polymerase ribozyme fitness (log ratio)” value was 1.03.

Take C28U C40G G48U C85A: the “polymerase ribozyme fitness (log ratio)” value was -3.6.

As to A27C G47U C73U G77U C86G C123A U126A, the “polymerase ribozyme fitness (log ratio)” value is -4.61.

Turning to C28U C56U, the “polymerase ribozyme fitness (log ratio)” value was -1.85.

As to C28G C62G C98U C124U, the “polymerase ribozyme fitness (log ratio)” value was -5.55.

For the variant C28G C53U U67G C73G C98A C102A A111U C114G, the “polymerase ribozyme fitness (log ratio)” value is -6.

In the case of A27U G60U C82A U125G, the “polymerase ribozyme fitness (log ratio)” value was -3.48.

Turning to U30C C40U G120C, the “polymerase ribozyme fitness (log ratio)” value was -2.45.

Regarding A27U A50U, the “polymerase ribozyme fitness (log ratio)” value is -4.65.

In the case of A29G C97A, the “polymerase ribozyme fitness (log ratio)” value is -5.53.

For A29G C40U, the “polymerase ribozyme fitness (log ratio)” value is -2.17.

With A27C U55G G57C A111U G122A, the “polymerase ribozyme fitness (log ratio)” value is -5.04.

Take A29G C104U U112G: the “polymerase ribozyme fitness (log ratio)” value worked out at 1.06.

In the case of A27U C76U A95G U130G, the “polymerase ribozyme fitness (log ratio)” value is -4.08.

With A27U A29G G63C G127C, the “polymerase ribozyme fitness (log ratio)” value was -6.04.

Turning to C28U G71U, the “polymerase ribozyme fitness (log ratio)” value was -2.6.

As for A29C C40U A41U C124U, the “polymerase ribozyme fitness (log ratio)” value is -3.03.

In the case of A29G A37G C88U A111C, the “polymerase ribozyme fitness (log ratio)” value was -0.788.

As to A29U A46C G48A A84C, the “polymerase ribozyme fitness (log ratio)” value is -3.31.

As to C28G C53U G93A, the “polymerase ribozyme fitness (log ratio)” value is -5.35.

On to A27C U67G G107A U109A C123G C124G, for which the “polymerase ribozyme fitness (log ratio)” value was -6.73.

As for A29G C53G U106A G117C, the “polymerase ribozyme fitness (log ratio)” value is -3.33.

Consider U30C C70U, for which the “polymerase ribozyme fitness (log ratio)” value is -2.92.

Take A27G C28U C56U U81A A83U A121C: the “polymerase ribozyme fitness (log ratio)” value was -3.5.

For C28A C88G G120A, the “polymerase ribozyme fitness (log ratio)” value was -3.89.

In the case of A27G C72U, the “polymerase ribozyme fitness (log ratio)” value is -1.76.

Take A29U G45A G47U: the “polymerase ribozyme fitness (log ratio)” value was -4.18.

For A27U G60U G63A U109A C124U, the “polymerase ribozyme fitness (log ratio)” value was -6.47.

A29G C49U A119U G120A C123A: the “polymerase ribozyme fitness (log ratio)” value is -2.51.

On to A29G G58C, for which the “polymerase ribozyme fitness (log ratio)” value is -1.5.

Regarding C28G G93A, the “polymerase ribozyme fitness (log ratio)” value was -3.77.

For A27G C56A C72U G120U, the “polymerase ribozyme fitness (log ratio)” value is -2.12.

Take C28G C56A: the “polymerase ribozyme fitness (log ratio)” value was -1.87.

As to A29C G44C U92C, the “polymerase ribozyme fitness (log ratio)” value was -5.1.

Regarding A27U G44U C101G A111C, the “polymerase ribozyme fitness (log ratio)” value is -7.22.

With C28U G57U C86A A90G G93U U96G G113C A121U, the “polymerase ribozyme fitness (log ratio)” value is -7.69.

C28G U54G C97U U130A U131C: the “polymerase ribozyme fitness (log ratio)” value is -3.57.

For the variant A27G G135U, the “polymerase ribozyme fitness (log ratio)” value was -2.21.

Turning to C28U G44U C62U G63C G110C U126A U132C, the “polymerase ribozyme fitness (log ratio)” value was -4.61.

In the case of C28U A41U G48A, the “polymerase ribozyme fitness (log ratio)” value was -5.18.

In the case of C28G G48U, the “polymerase ribozyme fitness (log ratio)” value is -3.56.

For A27C C62A, the “polymerase ribozyme fitness (log ratio)” value is -2.54.

For the variant A27G G45C G63A C104A U131C, the “polymerase ribozyme fitness (log ratio)” value is -6.14.

A29G U87A: the “polymerase ribozyme fitness (log ratio)” value was -1.67.

As to A29C G61U C70U A75G U78G, the “polymerase ribozyme fitness (log ratio)” value is -3.77.

For A27G C49G, the “polymerase ribozyme fitness (log ratio)” value is -2.37.

Turning to A27G C49U, the “polymerase ribozyme fitness (log ratio)” value was -2.19.

A29C A41U C64U: the “polymerase ribozyme fitness (log ratio)” value was -3.54.

For the variant A29G A66G, the “polymerase ribozyme fitness (log ratio)” value was -1.88.

For the variant A27C U78A, the “polymerase ribozyme fitness (log ratio)” value is -3.62.

Consider C28U C31A C85G A119G G120A, for which the “polymerase ribozyme fitness (log ratio)” value is -7.42.

As for A29U G63A, the “polymerase ribozyme fitness (log ratio)” value is -2.41.

Regarding C28U G60C, the “polymerase ribozyme fitness (log ratio)” value was -3.11.

As for A27U A29G A83C, the “polymerase ribozyme fitness (log ratio)” value was -2.59.

A27C C85U C123U: the “polymerase ribozyme fitness (log ratio)” value is -3.3.

U30C G69A: the “polymerase ribozyme fitness (log ratio)” value is -4.88.

Regarding A27U C97U U112A, the “polymerase ribozyme fitness (log ratio)” value was -3.08.

For A29G C31G G63A A100U A121C, the “polymerase ribozyme fitness (log ratio)” value was -7.06.

Turning to A27G C64U, the “polymerase ribozyme fitness (log ratio)” value is -2.01.

As for A29G G71A, the “polymerase ribozyme fitness (log ratio)” value was -1.75.

On to A27U C94U U106A G110U, for which the “polymerase ribozyme fitness (log ratio)” value is -2.09.

Turning to C28U C115U, the “polymerase ribozyme fitness (log ratio)” value is -3.6.

For A27U C53U G77A, the “polymerase ribozyme fitness (log ratio)” value is -3.79.

With A27C C56A C76G, the “polymerase ribozyme fitness (log ratio)” value was -3.81.

On to C28U C62A, for which the “polymerase ribozyme fitness (log ratio)” value is -2.73.

Consider A27U A68U A90C G93A C101G G110U, for which the “polymerase ribozyme fitness (log ratio)” value is -7.92.

On to A27U G61A C86U, for which the “polymerase ribozyme fitness (log ratio)” value is -2.19.

As to A27U C56U, the “polymerase ribozyme fitness (log ratio)” value is -3.04.

On to A27U C76U, for which the “polymerase ribozyme fitness (log ratio)” value is -3.39.

Take A29U G58A U106A: the “polymerase ribozyme fitness (log ratio)” value is -1.28.

Consider C28U G39A, for which the “polymerase ribozyme fitness (log ratio)” value was -2.12.

On to C28U G71U C82A, for which the “polymerase ribozyme fitness (log ratio)” value was -3.3.

As for A29C G61A A75U, the “polymerase ribozyme fitness (log ratio)” value was -1.75.

Regarding C28U G63C, the “polymerase ribozyme fitness (log ratio)” value is -3.08.

On to A27U C85A C86A C101G, for which the “polymerase ribozyme fitness (log ratio)” value was -5.15.

With A29G G58U U59A, the “polymerase ribozyme fitness (log ratio)” value was -1.29.

With A29G C49A, the “polymerase ribozyme fitness (log ratio)” value was -1.64.

For the variant C28U G45U C114U, the “polymerase ribozyme fitness (log ratio)” value is -4.18.

On to A29G G63C C104U U106G, for which the “polymerase ribozyme fitness (log ratio)” value was -1.63.

With A27C G47A U54G G57U, the “polymerase ribozyme fitness (log ratio)” value was -1.6.
